In patent US20200255478A1 (ALMIRALL S A, published 2020) one finds IC50 data, which are given here for 26 molecules.

Positions of bridges follow the written chain, without caps; N, C: chain ends. Non-standard residues stand in square brackets, D forms with d. Primed or numbered codes have the meaning given here. *: point of attachment. (pyridine)3,5‑diyldimethylene = -CH2-(pyridine-3,5-diyl)-CH2- bridge between the two Cys sulfurs; (3,3-oxetanediyl)dimethylene = -CH2-(oxetane-3,3-diyl)-CH2- bridge between the two Cys sulfurs; (1,2-phenylenediyl)dimethylene = -CH2-(1,2-phenylene)-CH2- bridge between the two Cys sulfurs; Pro(4S-NH2) = N[C@@H]1CN[C@H](C(=O)O)C1; Stearoyl = CCCCCCCCCCCCCCCCCC(=O)*; Palmitoyl = CCCCCCCCCCCCCCCC(=O)*; Nonadecanoyl′ = not defined here; Myristoyl = CCCCCCCCCCCCCC(=O)*; Thz = O=C(O)[C@@H]1CSCN1; Dodecyl = CCCCCCCCCCCC*; βAla = NCCC(=O)O

The target of this assay is T1, Keap1-Maltose Binding Protein (MBP tag) (UniProt Q14145 321-609, limits assumed).
T1 construct: also called Keap1-MBP; Keap-MBP
T1 sequence (Q14145 321-609 limits assumed): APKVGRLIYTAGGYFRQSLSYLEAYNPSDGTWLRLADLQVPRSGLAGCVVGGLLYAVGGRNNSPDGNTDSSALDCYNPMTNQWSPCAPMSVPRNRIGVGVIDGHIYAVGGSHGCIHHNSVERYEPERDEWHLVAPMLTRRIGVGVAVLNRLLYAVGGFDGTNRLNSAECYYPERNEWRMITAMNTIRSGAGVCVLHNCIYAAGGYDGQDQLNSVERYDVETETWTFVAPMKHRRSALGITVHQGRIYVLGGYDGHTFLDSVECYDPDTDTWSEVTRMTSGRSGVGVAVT
Put plainly: TR-FRET competition vs ETGE-biotin; grade band per paragraph 615.
cyclo([Pro(4S-NH2)](Ac)QCDPETGECL[dP]) (linker 3-10 via (1,2-phenylenediyl)dimethylene) came in with a 50% inhibitory concentration (IC50) of under 1 nM.

Molecule cyclo([Pro(4S-NH2)](arachidyl)QCDPETGECL[dP]) (linker 3-10 via (1,2-phenylenediyl)dimethylene) came in with a half-inhibitory concentration (IC50) of under 1 nM. For the molecule cyclo([Pro(4S-NH2)](α‑linolenyl)QCDPETGECL[dP]) (linker 3-10 via (1,2-phenylenediyl)dimethylene), the half-inhibitory concentration (IC50) was under 1 nM. Stearoyl-[βAla]LLCDPETGECLL-NH2 (linker 4-11 via (3,3-oxetanediyl)dimethylene) yielded an IC50 of under 1 nM.

Take cyclo(LQCDEETGECLP) (linker 3-10 via (1,3-phenylenediyl)dimethylene) [{[&1Leu-Gln-Cys(&2)-Asp-Glu-Glu-Thr-Gly-Glu-Cys(&3)-Leu-Pro&1][&2(1,3-phenylenediyl)dimethylene&3]}]: the IC50 is under 1 nM.

Regarding Stearoyl-[βAla]LQCDPETGECLP-NH2 (linker 4-11 via (pyridine)3,5‑diyldimethylene), the IC50 is under 1 nM.

Regarding cyclo([Pro(4S-NH2)](Stearoyl)QCD[Thz]ETGECL[dP]) (linker 3-10 via (3,3-oxetanediyl)dimethylene), the IC50 was under 1 nM. As to cyclo([Pro(4S-NH2)](Arachidyl)QCD[Thz]ETGECL[dP]) (linker 3-10 via (1,2-phenylenediyl)dimethylene), the IC50 was under 1 nM. As to cyclo([Pro(4S-NH2)](Palmitoyl)QCDPETGECL[dP]) (linker 3-10 via (1,2-phenylenediyl)dimethylene), the half-maximal inhibitory concentration (IC50) was under 1 nM. As for cyclo([Pro(4S-NH2)](Stearoyl)QCD[Thz]ETGECL[dP]) (linker 3-10 via (1,3-phenylenediyl)dimethylene), the figure is under 1 nM; as for cyclo([Pro(4S-NH2)](oleyl)QCDPETGECL[dP]) (linker 3-10 via (1,2-phenylenediyl)dimethylene), under 1 nM. With cyclo([Pro(4S-NH2)](Nonadecanoyl′)QCDPETGECL[dP]) (linker 3-10 via (1,2-phenylenediyl)dimethylene) the figure was under 1 nM; with cyclo([Pro(4S-NH2)](Stearoyl)QCD[Thz]ETGECL[dP]) (linker 3-10 via (1,2-phenylenediyl)dimethylene), under 1 nM; with cyclo([Pro(4S-NH2)](Arachidyl)QCDPETGECL[dP]) (linker 3-10 via (3,3-oxetanediyl)dimethylene), under 1 nM. Regarding cyclo([Pro(4S-NH2)](Stearoyl)QCDPETGECL[dP]) (linker 3-10 via (1,3-phenylenediyl)dimethylene), the half-inhibitory concentration (IC50) is under 1 nM. H-LQCDAETGECLP-OH (linker 3-10 via (1,3-phenylenediyl)dimethylene) [{[H-Leu-Gln-Cys(&1)-Asp-Ala-Glu-Thr-Gly-Glu-Cys(&2)-Leu-Pro-OH][&1(1,3-phenylenediyl)dimethylene&2]}] registered a half-maximal inhibitory concentration (IC50) of under 1 nM.

For Stearoyl-[βAla]KQCDPETGECLP-NH2 (linker 4-11 via (1,2-phenylenediyl)dimethylene), the half-inhibitory concentration (IC50) is under 1 nM. Molecule Stearoyl-[βAla]KKCDPETGECLP-NH2 (linker 4-11 via (1,2-phenylenediyl)dimethylene) yielded an IC50 of under 1 nM.

In turn, cyclo([Pro(4S-NH2)](Arachidyl)QCD[Thz]ETGECL[dP]) (linker 3-10 via (3,3-oxetanediyl)dimethylene) displayed an IC50 of under 1 nM. As for cyclo([Pro(4S-NH2)](Dodecyl)QCDPETGECL[dP]) (linker 3-10 via (1,2-phenylenediyl)dimethylene), the figure is under 1 nM; as for cyclo([Pro(4S-NH2)](Myristoyl)QCDPETGECL[dP]) (linker 3-10 via (1,2-phenylenediyl)dimethylene), under 1 nM. cyclo([Pro(4S-NH2)](behenyl)QCDPETGECL[dP]) (linker 3-10 via (1,2-phenylenediyl)dimethylene) displayed a 50% inhibitory concentration (IC50) of under 1 nM. With cyclo([Pro(4S-NH2)](Stearoyl)QCDPETGECL[dP]) (linker 3-10 via (1,2-phenylenediyl)dimethylene) the figure was under 1 nM; with Stearoyl-KQCDPETGECL[dP] (lactam 1-C; linker 3-10 via (1,2-phenylenediyl)dimethylene), under 1 nM.

In the case of cyclo([Pro(4S-NH2)](Stearoyl)QCDRETGECL[dP]) (linker 3-10 via (1,2-phenylenediyl)dimethylene), the IC50 was under 1 nM. As for cyclo(K(Stearoyl)QCDPETGECL[dP]) (linker 3-10 via (1,2-phenylenediyl)dimethylene), the figure is under 1 nM.
